Results from US20260242419A1, “A CYCLIC PEPTIDE FOR TRAPPING INTERLEUKIN-1 BETA” (Merck Sharp & Dohme LLC, priority 2023, published 2026).
Starred links: 1 amine or outer side, 2 acyl side, 3 side chain; linkers in the order of their positions; H or OH if unused. Non-standard residues stand in square brackets, D forms with d. Trp4Az = (2S)-2-amino-3-(1H-pyrrolo[3,2-b]pyridin-3-yl)propanoic acid, O=C([C@H](Cc1c[nH]c2cccnc12)N[*:1])[*:2]; dPro(4R-(4-pyridylmethyl)) = O=C(O)[C@H]1C[C@@H](Cc2ccncc2)CN1; Ala(piperidin-4-yl) = O=C([C@H](CC1CCN([*:3])CC1)N[*:1])[*:2]; dPro(3S-(4-Br-benzyl)) = O=C(O)[C@@H]1NCC[C@@H]1Cc1ccc(Br)cc1; Trp(βS-Me,4-F) = C[C@@H](c1c[nH]c2cccc(F)c12)[C@H](N)C(=O)O; Bip(4'-COOH) = N[C@@H](Cc1ccc(-c2ccc(C(=O)O)cc2)cc1)C(=O)O; Ala(1-bicyclo(1.1.1)pentyl) = N[C@@H](CC12CC(C1)C2)C(=O)O; dPro(4R-Bzl(4-F)) = O=C(O)[C@H]1C[C@@H](Cc2ccc(F)cc2)CN1; 1Nal(3S-Me) = C[C@@H](c1cccc2ccccc12)[C@H](N)C(=O)O; Ala(morpholin-4-yl) = N[C@@H](CN1CCOCC1)C(=O)O; Ala(pyrimidin-5-yl) = N[C@@H](Cc1cncnc1)C(=O)O; Phe(4-COOH) = N[C@@H](Cc1ccc(C(=O)O)cc1)C(=O)O; Pro(cis-4-F) = O=C(O)[C@@H]1C[C@H](F)CN1; cisHyp = O=C(O)[C@@H]1C[C@H](O)CN1; d(αMeD) = C[C@@](N)(CC(=O)O)C(=O)O; 4Pal = N[C@@H](Cc1ccncc1)C(=O)O; Cba = N[C@@H](CC1CCC1)C(=O)O; αMeK = C[C@](N)(CCCCN)C(=O)O; Orn = NCCC[C@H](N)C(=O)O; Dab = NCC[C@H](N)C(=O)O; Dap = NC[C@H](N)C(=O)O; Aib = CC(C)(N)C(=O)O

B1: SEQ ID NO: 149 (peptide)
peptide: cyclo([Bip(4'-COOH)][4Pal][Phe(4-COOH)]G[Pro(cis-4-F)][1Nal(3S-Me)][Aib]EW[Aib][Ala(pyrimidin-5-yl)]Q[Dab]G[dPro(4R-Bzl(4-F))])
modifications: ring closure inferred; not fully specified (bridges); printed as Bip4CO2H-4Pal-Phe4COOH-G-Proc4F-sbMe1Nal-Aib-E-W-Aib-PyrimAla-Q-Dab-G-dProc4Bn4F, cyclic (macrolactam)

target: Recombinant human IL-1β (BioLegend 579404) (human, UniProt P01584 117-269); assay: cell-based or functional assay

| Binder | MRC5 IC50 |
| --- | --- |
| cyclo([Bip(4'-COOH)][Ala(1-bicyclo(1.1.1)pentyl)][Phe(4-COOH)]G[cisHyp][Trp(βS-Me,4-F)][Aib]SW[d(αMeD)][Ala(pyrimidin-5-yl)]Q[Dab]G[dPro(4R-(4-pyridylmethyl))]) (ring closure inferred) [SEQ ID NO: 160] | 23 pM |
| cyclo([Bip(4'-COOH)][4Pal][Phe(4-COOH)]G[cisHyp][Trp(βS-Me,4-F)][Aib]SW[d(αMeD)][Ala(pyrimidin-5-yl)]QSG[dPro(4R-(4-pyridylmethyl))]) (ring closure inferred) [SEQ ID NO: 161] | 19 pM |
| cyclo([Bip(4'-COOH)][4Pal][Phe(4-COOH)]G[Pro(cis-4-F)][1Nal(3S-Me)][Aib]EW[Aib][Ala(pyrimidin-5-yl)]Q[Dab]G[dPro(3S-(4-Br-benzyl))]) (ring closure inferred) [SEQ ID NO: 153] | 19 pM |
| cyclo([Bip(4'-COOH)][4Pal][Phe(4-COOH)]G[Pro(cis-4-F)][Trp(βS-Me,4-F)][Aib]EW[Aib][Ala(pyrimidin-5-yl)]QKG[dPro(3S-(4-Br-benzyl))]) (ring closure inferred) [SEQ ID NO: 152] | 31 pM |
| B1 | 24 pM |
| cyclo([Bip(4'-COOH)][Cba][Phe(4-COOH)]G[Pro(cis-4-F)][Trp(βS-Me,4-F)][Aib]SW[Aib][Ala(pyrimidin-5-yl)]Q[Dab]G[dPro(4R-(4-pyridylmethyl))]) (ring closure inferred) [SEQ ID NO: 163] | 30 pM |
| cyclo([Bip(4'-COOH)][Ala(1-bicyclo(1.1.1)pentyl)][Phe(4-COOH)]G[cisHyp][Trp(βS-Me,4-F)][Aib]SW[d(αMeD)][Ala(pyrimidin-5-yl)]QSG[dPro(4R-(4-pyridylmethyl))]) (ring closure inferred) [SEQ ID NO: 157] | 38 pM |
| cyclo([Bip(4'-COOH)][Cba][Phe(4-COOH)]G[cisHyp][Trp(βS-Me,4-F)][Aib]SW[d(αMeD)][Ala(pyrimidin-5-yl)]Q[Dab]G[dPro(4R-(4-pyridylmethyl))]) (ring closure inferred) [SEQ ID NO: 164] | 39 pM |
| cyclo([Bip(4'-COOH)][4Pal][Phe(4-COOH)]G[Pro(cis-4-F)][Trp(βS-Me,4-F)][Aib]EW[Aib][Ala(pyrimidin-5-yl)]Q[Dap]G[dPro(3S-(4-Br-benzyl))]) (ring closure inferred) [SEQ ID NO: 150] | 19 pM |
| cyclo([Bip(4'-COOH)][Ala(1-bicyclo(1.1.1)pentyl)][Phe(4-COOH)]G[Pro(cis-4-F)][Trp(βS-Me,4-F)][Aib]EW[αMeK][Ala(morpholin-4-yl)]Q[Dab]G[dPro(4R-Bzl(4-F))]) (ring closure inferred) [SEQ ID NO: 165] | 22 pM |
| cyclo([Bip(4'-COOH)][4Pal][Phe(4-COOH)]G[cisHyp][Trp(βS-Me,4-F)][Aib]SW[d(αMeD)][Ala(pyrimidin-5-yl)]Q[Dab]G[dPro(4R-(4-pyridylmethyl))]) (ring closure inferred) [SEQ ID NO: 159] | 13 pM |
| cyclo([Bip(4'-COOH)][4Pal][Phe(4-COOH)]G[Pro(cis-4-F)][Trp(βS-Me,4-F)][Aib]S[Trp4Az][Aib][Ala(pyrimidin-5-yl)]Q[Dab]G[dPro(4R-(4-pyridylmethyl))]) (ring closure inferred) [SEQ ID NO: 162] | 50 pM |
| cyclo([Bip(4'-COOH)][4Pal][Phe(4-COOH)]G[Pro(cis-4-F)][Trp(βS-Me,4-F)][Aib]SW[d(αMeD)][Ala(pyrimidin-5-yl)]QSG[dPro(4R-(4-pyridylmethyl))]) (ring closure inferred) [SEQ ID NO: 156] | 15 pM |
| cyclo([Bip(4'-COOH)][4Pal][Phe(4-COOH)]G[Pro(cis-4-F)][Trp(βS-Me,4-F)][Aib]EW[Aib][Ala(pyrimidin-5-yl)]Q[Orn]G[dPro(3S-(4-Br-benzyl))]) (ring closure inferred) [SEQ ID NO: 151] | 22 pM |
| cyclo([Bip(4'-COOH)][4Pal][Phe(4-COOH)]G[Pro(cis-4-F)][Trp(βS-Me,4-F)][Aib]SW[d(αMeD)][Ala(pyrimidin-5-yl)]Q[Dab]G[dPro(4R-(4-pyridylmethyl))]) (ring closure inferred) [SEQ ID NO: 154] | 11 pM |
| cyclo([Bip(4'-COOH)][Ala(1-bicyclo(1.1.1)pentyl)][Phe(4-COOH)]G[Pro(cis-4-F)][Trp(βS-Me,4-F)][Aib]EW[αMeK][Ala(piperidin-4-yl)]Q[Dab]G[dPro(4R-Bzl(4-F))]) (ring closure inferred) [SEQ ID NO: 166] | 39 pM |
| cyclo([Bip(4'-COOH)][Ala(1-bicyclo(1.1.1)pentyl)][Phe(4-COOH)]G[Pro(cis-4-F)][Trp(βS-Me,4-F)][Aib]SW[d(αMeD)][Ala(pyrimidin-5-yl)]QSG[dPro(4R-(4-pyridylmethyl))]) (ring closure inferred) [SEQ ID NO: 158] | 13 pM |
| cyclo([Bip(4'-COOH)][Ala(1-bicyclo(1.1.1)pentyl)][Phe(4-COOH)]G[Pro(cis-4-F)][Trp(βS-Me,4-F)][Aib]SW[d(αMeD)][Ala(pyrimidin-5-yl)]Q[Dab]G[dPro(4R-(4-pyridylmethyl))]) (ring closure inferred) [SEQ ID NO: 155] | 11 pM |
| cyclo([Bip(4'-COOH)][Ala(1-bicyclo(1.1.1)pentyl)][Phe(4-COOH)]G[Pro(cis-4-F)][Trp(βS-Me,4-F)][Aib]SW[Aib][Ala(morpholin-4-yl)]Q[Dab]G[dPro(4R-Bzl(4-F))]) (ring closure inferred) [SEQ ID NO: 167] | 13 pM |
